From IntAct's records for PubMed 17954914

B1: Calcipressin-like protein (Saccharomyces cerevisiae), P36054 (parent)
chain: MGNIITDTIIITSDKCDIVDNDNVERIQVWLSKNILRKFQINENEPLQLIILKRFKRILLICPSHDISQHVMDASRALEMENFNFSYSLQDGQRNLTKQYLKVPESEKMFLISPPASPPPEFDFSKCEDAPQRHIQSHIQQDQQQRLEASQLLPNNPDKNNNGTFTLLKSKVGAITIDRCPTNDGNGQMQLADHVKTAFPPKSIFDTDDDD
partner: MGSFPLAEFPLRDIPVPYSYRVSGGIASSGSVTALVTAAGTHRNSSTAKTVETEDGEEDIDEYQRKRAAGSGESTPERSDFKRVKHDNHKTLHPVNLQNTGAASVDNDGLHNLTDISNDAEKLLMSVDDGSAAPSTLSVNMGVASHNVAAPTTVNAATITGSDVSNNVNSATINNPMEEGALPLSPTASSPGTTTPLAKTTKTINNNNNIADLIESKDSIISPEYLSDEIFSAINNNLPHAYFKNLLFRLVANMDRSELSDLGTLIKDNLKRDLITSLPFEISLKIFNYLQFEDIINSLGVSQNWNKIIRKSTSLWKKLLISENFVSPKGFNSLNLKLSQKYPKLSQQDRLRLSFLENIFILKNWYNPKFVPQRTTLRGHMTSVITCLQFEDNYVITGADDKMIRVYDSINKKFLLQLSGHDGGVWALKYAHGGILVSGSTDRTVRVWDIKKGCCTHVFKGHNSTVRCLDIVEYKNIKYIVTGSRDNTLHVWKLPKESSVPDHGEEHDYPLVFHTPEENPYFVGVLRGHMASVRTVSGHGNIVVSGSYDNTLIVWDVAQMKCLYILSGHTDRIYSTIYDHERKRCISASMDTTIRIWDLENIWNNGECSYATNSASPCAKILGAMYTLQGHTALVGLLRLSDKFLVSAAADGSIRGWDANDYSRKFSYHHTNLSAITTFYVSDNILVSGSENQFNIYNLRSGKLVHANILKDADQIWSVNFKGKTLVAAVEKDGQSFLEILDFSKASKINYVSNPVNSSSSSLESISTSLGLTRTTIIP

Variants of: B1
Settings: with cdc4_yeast CDC4, P07834

| Variant | effect of a mutation on the interaction |
| --- | --- |
| MGNIITDTIIITSDKCDIVDNDNVERIQVWLSKNILRKFQINENEPLQLIILKRFKRILLICPSHDISQHVMDASRALEMENFNFSYSLQDGQRNLTKQYLKVPESEKMFLISPPAAPPPEFDFSKCEDAPQRHIQSHIQQDQQQRLEASQLLPNNPDKNNNGTFTLLKSKVGAITIDRCPTNDGNGQMQLADHVKTAFPPKSIFDTDDDD [S117A] | disrupting interaction |
| MGNIITDTIIITSDKCDIVDNDNVERIQVWLSKNILRKFQINENEPLQLIILKRFKRILLICPSHDISQHVMDASRALEMENFNFSYSLQDGQRNLTKQYLKVPESEKMFLIAPPAAPPPEFDFSKCEDAPQRHIQSHIQQDQQQRLEASQLLPNNPDKNNNGTFTLLKSKVGAITIDRCPTNDGNGQMQLADHVKTAFPPKSIFDTDDDD [S113A;S117A] | disrupting interaction strength |
| MGNIITDTIIITSDKCDIVDNDNVERIQVWLSKNILRKFQINENEPLQLIILKRFKRILLICPSHDISQHVMDASRALEMENFNFSYSLQDGQRNLTKQYLKVPESEKMFLIAPPASPPPEFDFSKCEDAPQRHIQSHIQQDQQQRLEASQLLPNNPDKNNNGTFTLLKSKVGAITIDRCPTNDGNGQMQLADHVKTAFPPKSIFDTDDDD [S113A] | disrupting interaction |
